Measured values: patent US20140120095A1 (Boehringer Ingelheim, published 2014)

Assays:
[1] = target: T1, human DLL4 expressed on cells (CHO-hDLL4; HEK293-hDLL4) (human, UniProt Q9NR61 27-685); test: competition FMAT CHO-hDLL4; summary table
T1 construct: full length human DLL4 overexpressed on CHO cells (FMAT, FACS) or HEK293 cells (reporter assay)

[2] = target: T2, recombinant mouse DLL4 (C-terminally His-tagged extracellular domain, R&D Systems) (mouse, UniProt Q9JI71 27-532); test: SPR (Biacore), rmDLL4
T2 construct: extracellular domain; also called rmDLL4; mDLL4
T2 sequence (Q9JI71 27-532): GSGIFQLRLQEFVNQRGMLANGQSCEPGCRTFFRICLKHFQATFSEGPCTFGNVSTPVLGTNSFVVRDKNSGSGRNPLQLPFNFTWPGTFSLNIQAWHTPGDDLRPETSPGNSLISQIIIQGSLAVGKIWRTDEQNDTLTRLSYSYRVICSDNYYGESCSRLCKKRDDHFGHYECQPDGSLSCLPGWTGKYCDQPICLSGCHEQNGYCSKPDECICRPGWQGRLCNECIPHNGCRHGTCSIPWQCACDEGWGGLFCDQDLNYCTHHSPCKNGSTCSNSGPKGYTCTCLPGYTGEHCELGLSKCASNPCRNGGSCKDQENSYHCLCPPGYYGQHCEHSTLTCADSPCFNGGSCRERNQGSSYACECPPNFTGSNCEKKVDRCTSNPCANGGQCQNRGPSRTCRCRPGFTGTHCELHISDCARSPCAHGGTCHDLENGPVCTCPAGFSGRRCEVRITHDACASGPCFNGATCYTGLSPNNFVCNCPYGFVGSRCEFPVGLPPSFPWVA

[3] = target: T3, mouse DLL4 expressed on CHO cells (mouse, UniProt Q9JI71 27-686); test: FACS on CHO-mDLL4 cells
T3 construct: whole, on cells; also called mDLL4; CHO-mDLL4
T3 sequence (Q9JI71 27-686): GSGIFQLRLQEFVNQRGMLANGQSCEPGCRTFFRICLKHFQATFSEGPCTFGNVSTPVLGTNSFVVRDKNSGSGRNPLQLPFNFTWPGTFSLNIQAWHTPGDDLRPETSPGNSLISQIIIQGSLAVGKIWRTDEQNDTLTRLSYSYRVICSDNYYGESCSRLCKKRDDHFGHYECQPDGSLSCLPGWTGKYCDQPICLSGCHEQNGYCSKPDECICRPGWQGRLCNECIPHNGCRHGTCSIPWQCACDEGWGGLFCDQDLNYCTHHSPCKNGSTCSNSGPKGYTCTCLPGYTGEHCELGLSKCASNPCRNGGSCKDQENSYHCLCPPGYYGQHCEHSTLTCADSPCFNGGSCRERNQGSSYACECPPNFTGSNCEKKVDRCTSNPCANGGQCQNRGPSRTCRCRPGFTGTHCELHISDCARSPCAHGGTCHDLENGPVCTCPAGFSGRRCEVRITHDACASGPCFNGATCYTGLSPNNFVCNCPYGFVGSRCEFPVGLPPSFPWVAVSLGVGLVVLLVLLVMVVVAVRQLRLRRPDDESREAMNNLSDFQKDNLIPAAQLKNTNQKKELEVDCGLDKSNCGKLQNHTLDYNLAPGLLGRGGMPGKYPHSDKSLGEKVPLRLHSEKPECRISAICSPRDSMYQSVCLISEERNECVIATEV

[4] = target: T4, recombinant human DLL4 (C-terminally His-tagged extracellular domain, R&D Systems) (human, UniProt Q9NR61 25-522, biotinylated in the competition ELISA); test: competition ELISA hDLL4/hNotch1-Fc; summary table
T4 construct: also called rhDLL4; hDLL4

[5] = target: T3, mouse DLL4 expressed on CHO cells; test: competition FMAT, labelled hNotch1-Fc on CHO-mDLL4 cells
[6] = target: T3, mouse DLL4 expressed on CHO cells; test: FACS; summary table, column taken as mDLL4
[7] = target: T2, recombinant mouse DLL4 (C-terminally …); test: SPR (Biacore); summary table
[8] = target: T4, recombinant human DLL4 (C-terminally …); test: SPR (Biacore); summary table
[9] = target: T4, recombinant human DLL4 (C-terminally …); test: competition ELISA, biotinylated hDLL4 to coated hNotch1-Fc
[10] = target: T5, cynomolgus DLL4 expressed on CHO cells (cynomolgus, UniProt Q9NR61 27-685 (human entry)); test: FACS on CHO-cDLL4 cells
T5 construct: also called cDLL4; CHO-cDLL4
T5 chain: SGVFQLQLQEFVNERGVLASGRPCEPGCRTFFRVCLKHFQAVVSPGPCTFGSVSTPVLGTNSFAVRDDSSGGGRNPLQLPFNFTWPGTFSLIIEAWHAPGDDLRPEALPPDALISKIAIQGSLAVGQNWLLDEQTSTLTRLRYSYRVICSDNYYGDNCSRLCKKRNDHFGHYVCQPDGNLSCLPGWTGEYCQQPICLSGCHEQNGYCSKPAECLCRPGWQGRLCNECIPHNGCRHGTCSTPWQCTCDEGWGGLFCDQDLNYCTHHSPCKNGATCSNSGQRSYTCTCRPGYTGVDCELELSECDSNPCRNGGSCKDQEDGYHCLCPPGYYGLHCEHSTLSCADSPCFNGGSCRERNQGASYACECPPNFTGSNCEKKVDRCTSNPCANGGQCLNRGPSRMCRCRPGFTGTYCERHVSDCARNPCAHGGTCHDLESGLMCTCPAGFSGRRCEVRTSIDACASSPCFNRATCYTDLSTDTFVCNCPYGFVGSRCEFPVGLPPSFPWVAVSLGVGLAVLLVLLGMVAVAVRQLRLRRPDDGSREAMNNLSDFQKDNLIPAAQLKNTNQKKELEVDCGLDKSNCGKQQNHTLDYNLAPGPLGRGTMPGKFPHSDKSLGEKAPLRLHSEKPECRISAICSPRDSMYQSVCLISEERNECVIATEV

[11] = target: T1, human DLL4 expressed on cells …; test: FACS; summary table, column taken as hDLL4
[12] = target: T4, recombinant human DLL4 (C-terminally …); test: SPR (Biacore), rhDLL4
Summary of the method: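 SPR with DLL4 on the chip; VHH or Fab injected at 10-300 nM for 2 minutes, 20 min dissociation, in HBS-N pH7.4, regenerating with glycine pH1.5 and HCl. KD derived from association and dissociation rate constants by 1:1 Langmuir fit where the curves allowed.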

[13] = target: T5, cynomolgus DLL4 expressed on CHO cells; test: FACS; summary table, column taken as cDLL4
[14] = target: T1, human DLL4 expressed on cells …; test: competition FMAT, labelled hNotch1-Fc on CHO-hDLL4 cells
[15] = target: T1, human DLL4 expressed on cells …; test: FACS on CHO-hDLL4 cells
human Jagged-1 (Alexis) = target: T6, human Jagged-1 (Alexis) (human, UniProt P78504 34-1067, limits assumed); test: binding ELISA on coated human Jagged-1 (Example 5.8, Example 7), OD 405 nm
T6 construct: also called hJag-1; hJAG1

[16] = target: T3, mouse DLL4 expressed on CHO cells; test: competition FMAT CHO-mDLL4; summary table
[17] = target: T1, human DLL4 expressed on cells …; test: cell-based or functional assay

B1: DLLBII129E11 (VHH, not shown: small tags and cut ends)
VHH: EVQLVESGGGLVQAGGSLRLSCAASGRTFSSYAMAWYRQAPGKEREYVAAIRWSGGTAYYADSVQGRFTISRDNAKNTVYLQMNSLKPEDTAVYYCANRAPDTRLRPYLYDYWGQGTQVTVSS
IC50 [1]: 8.1 nM
Kd [2]: 1.2 nM
koff [2]: 0.00029 s⁻¹
kon [2]: 250000 M⁻¹ s⁻¹
EC50 [3]: 4.1 nM
IC50 [4]: 1.3 nM
IC50 [5]: 12.3 nM
EC50 [6]: 4.1 nM
Kd [7]: 1.2 nM
Kd [8]: 0.5 nM
IC50 [9]: 1.3 nM
EC50 [10]: 4.2 nM
EC50 [11]: 10.4 nM
Kd [12]: 0.5 nM
koff [12]: 9e-05 s⁻¹
kon [12]: 190000 M⁻¹ s⁻¹
EC50 [13]: 4.2 nM
IC50 [14]: 8.1 nM
EC50 [15]: 1.4 nM
binding result (human Jagged-1 (Alexis)): no binding (tested: log[M] -6.1 (about 8e-7 M))
IC50 [16]: 12.3 nM
IC50, DLL4-mediated reporter assay [17]: 98 nM
